The results in this text go back to patent US20160003839A1 (NATIONAL UNIVERSITY OF IRELAND GALWAY, published 2016).

To fix the notation:
B1: scFv-A4 (scFv)
scFv: QAALTQPSSVSTNPGGTVKITCSGGNGNYGWYQQKSPGSAPVTVIYSNNKRPSDIPSRFSGSKSGSTATLTITGVQVDDEAVYFCGAYDNTYVGVFGAGTTLTVLGQSSRSSSGGGSSGGGGSAVTLDESGGGLQTPGGGLSLVCKASGFTFSSYSMQWVRQTPGKGLEFVAGIGYSDSYTYFGPAVKGRATISRDNGQNTVRLQLNNLRAEDTATYYCARSADTIYGCTHPWCSADNIDAWGHGTEVIVSSTSGQAGQ
notes: Chicken scFv (VL-linker-VH) from a pComb3 phage library, expressed soluble in E. coli; It recognises the Gal-α-(1→3)-Gal glycan, not a protein surface
B2: scFv-A11 (scFv)
scFv: QAALTQPSSVSANPGETVKITCSGGGSYGGSYYYGWYQQKSPGSAPVTVIYSNDNRPSDIPSRFSGSTSGSTSTLTITGVQVDDEAVYYCGTYDSSYVGIFGAGTALTVLGQSSRSSGGGSSGGGGSAVTLDESGGGLQTPGGGLSLVCKASGFTFSSYSMQWVRQTPGKGLEFVAGIGYSDSYTYFGPAVKGRATISRDNGQNTVRLQLNNLRAEDTATYYCARSADTIYGCTHPWCSADNIDAWGHGTEVIVSSTSGQAGQ
notes: Chicken scFv (VL-linker-VH), expressed soluble in E. coli; It recognises the Gal-α-(1→3)-Gal glycan
B3: scFv-G12 (scFv)
scFv: QAALTQPSSVSANPGETVKITCSGGSYHYGWYQQKSPGSAPVTVIYSNNQRPSGIPSRFSGSTSDSTGTLTITGVQADDEAVYFCGSYDSSNTYAGIFGAGTTLTVLGQSSRSSSGGGSSGGGGSAVTLDESGGGFQTPGGALSLVCKASGFTFSSYSMQWVRQAPGKGLEFVAGIGNSDRYTYFGPAVKGRATISRDNGQSTLRLQLNNLRAEDTATYFCARSGDSGNGCTHPWCSADNINAWGHGTEVIVSSTSGQAGQ
notes: as for B2

The assay concerns the target T1, Gal-α-(1→3)-Gal target of the SPR experiment (ligand on the chip not stated).
T1 construct: also called target glycan
The experiment in a line: SPR (BIAcore), Kd from kon and koff; ligand on the chip not stated. On the procedure: Dissociation constants (Kd) for the scFvs were calculated from the measured association (kon) and dissociation (koff) rate constants by using surface plasmon resonance (SPR) BIAcore instrumentation and software (GE).
B1: the Kd was determined as 57.3 nM.

Take B2: the dissociation constant Kd came to 8.04 nM.

The molecule B3 gave a Kd of 18 nM.
